Measured values as given in patent publication US9243044B2, “Anticoagulant polypeptide and applications thereof” (GUANGDONG MEDICAL COLLEGE, priority 2011, dated 2016).
Entries after “also recorded” stand apart in the source; their conditions may differ. Marks after values point to notes of the source that are not given here.

Assays:
SD rats [1] = assay: Rat arterio-venous shunt thrombus formation model; assay type: in vivo
Description: 50 SPF grade male SD rats (provided by the laboratory animal center of Guangdong Medical College, 300-350 g body weight) were randomly divided into saline control group, positive control group (100 U·kg^−1 heparin sodium, Shanghai No. 1 Biochemical & Pharmaceutical Co. Ltd), and rNAPT-1 low dose (100 μg·kg^−1), middle dose (1 mg·kg^−1), high dose group (5 mg·kg^−1), 10 rats each group, respectively. These rats were anaesthetized with 10% chloral hydrate (250 mg/kg) by intraperitoneal injection. The right common carotid artery and left external jugular vein was exposed and dissected bluntly from the surrounding tissue after a surgical incision. One end of a polyethylene pipe (1.5 mm of diameter, 22 cm of length) with a 5 cm length of No. 4 operation suture in it and filled with 50 U/mL heparin solution was inserted into the right common carotid artery, and the other end was inserted into the left external […] vein. 5 min after tail intravenous injection of drugs, the artery clamp was opened, and blood flow from the right common carotid artery to the left external jugular vein through the polyethylene pipe. After 15 min of blood flow, the suture line was quickly removed and weighed. The net weight of thrombus is total weight minus suture weight; inhibition rate=(wet weight of thrombus of saline control group−wet weight of thrombus of administration group)/wet weight of thrombus of saline control group×100%.

human fXa = target: T1, human fXa (Homo sapiens, UniProt P00742); assay: Chromogenic assay, fXa; assay type: biochemical
T1 construct: Human coagulation factors IIa (thrombin), Xa, XIa, XIIa, EGR-fXa; purchased Haematologic Technologies Inc (United States)
T1 sequence (P00742 41-179 limits assumed): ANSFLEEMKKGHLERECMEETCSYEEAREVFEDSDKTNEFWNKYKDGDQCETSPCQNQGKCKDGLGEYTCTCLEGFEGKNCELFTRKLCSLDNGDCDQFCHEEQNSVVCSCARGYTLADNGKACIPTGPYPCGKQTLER
T1 sequence (P00742 235-488 limits assumed): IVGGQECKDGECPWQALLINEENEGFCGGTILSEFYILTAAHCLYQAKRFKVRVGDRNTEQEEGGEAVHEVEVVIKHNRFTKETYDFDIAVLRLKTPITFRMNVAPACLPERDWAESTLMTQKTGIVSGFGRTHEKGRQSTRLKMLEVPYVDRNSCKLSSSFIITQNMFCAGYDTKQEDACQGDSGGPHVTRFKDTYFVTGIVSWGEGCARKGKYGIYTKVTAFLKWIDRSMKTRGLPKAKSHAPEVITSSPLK
Source text: The recombinant anticoagulant polypeptides in the present invention were expressed in E. coli and purified in our laboratory, of which the activities against coagulation factors were investigated by chromogenic assays. Human coagulation factors IIa (thrombin), Xa, XIa, XIIa, EGR-fXa were products of Haematologic Technologies Inc (United States). Recombinant fVIIa was products of Novo-Nordisk (Denmark). Recombinant soluble tissue factor (sTF) was purchased from Protgen (Beijing, China). The following chromogenic substrates were used for these coagulation factor assays: S2765 for human fXa, S2288 for human fVIIa and fIIa, 52366 for human fXIa and fXIIa, respectively.
The chromogenic assays were carried out in a total reaction volume of 100 μl in individual wells of a 96-well microtiter plate. 50 μl fIIa, fXa, fXIa, or fXIIa (final concentration: 1 nM) was incubated with 10 μl recombinant anticoagulant polypeptide at various concentrations (or PBS control group) Assays for the detection activity of fVIIa: 50 μl fVIIa+TF (1 μM) and EGR-fXa (final concentration 500 nM) was incubated for 15 mins at 25° C., respectively. After the addition of 40 μl of prewarmed chromogenic substrate to a final concentration of 400 μM, the changes of absorbance at 405 nm were monitored by using an E1x808 kinetic microtiter reader. The data were used to calculate the velocities of response.

normal human plasma = assay: aPTT assay in normal human plasma; assay type: biochemical; settings: for aPTT: normal human plasma; for multiples of prolonging aPTT: ratio of mean aPTT to blank control
Description: The recombinant anticoagulant polypeptides were expressed in Escherichia coli and purified in our laboratory. Anticoagulant activity was determined by measuring the aPTT and PT.
For the aPTT assay, 10 μl recombinant protein at various concentrations was mixed with 50 μl fresh normal human plasma, 20 μl aPTT reagent (MDC Hemostasis, Germany) and incubated for 15 mins at 37° C. 20 μl 0.05 mol/L prewarmed CaCl2 was then added to initiate the clotting reaction. The clotting time was measured with the absorbance at 630 nm by using an E1x808 kinetic microtiter reader (BioTek, United States). Each concentration was repeated 3 times. The ratio of the mean aPTT value of each concentration to blank control group is multiples of prolonging the aPTT.

SD rats [2] = assay: Rat carotid artery thrombosis (FeCl3); assay type: in vivo; settings: for Inhibition rate %: vs model group
Description: 50 SPF grade male SD rats (provided by the laboratory animal center of Guangdong Medical College, 300-350 g body weight) were randomly divided into sham operation group (except without the FeCl3, the remaining steps with other groups), model group, and rNAPTin-1 low dose (100 μg·kg^−1), middle dose (1 mg·kg^−1), high dose group (5 mg·kg^−1), 10 rats each group, respectively. These rats were anaesthetized with 10% chloral hydrate (250 mg/kg) by intraperitoneal injection. The right carotid artery was isolated by making a midline cervical incision followed by blunt dissection to expose a 1 cm segment of the vessel from the carotid sheath, and then a 0.6 cm wide sealing adhesive strip was inserted. After 5 mins of tail intravenous injection of drugs, separation spare the common carotid artery segment was ring wrapped by filter paper (1.0 cm×0.5 cm) soaked in 20% FeCl3 solution and sealed with strip seal. After 15 mins, the filter strips was remove. 40 mins later, the blood vessels ligation at both ends of filter paper was ligated. The vascular segment of the paper strip wrapped was precisely cut followed sucked excess blood in blood vessels with a clean filter paper, and wet weight including thrombotic vascular was accurately weighed, then weighed again after removing blood clots. The difference is the quality of the thrombus within the 0.5 cm long vessel segment. In sham operation, FeCl3 immersion filter strips were replaced with normal saline immersion filter strips.

SD rats [3] = assay: Rat inferior vena cava (venous) thrombosis; assay type: in vivo; settings: for Thrombosis rate: rats with thrombus / rats, 4 hours after ligation
Description: 40 SPF grade male SD rats (provided by the laboratory animal center of Guangdong Medical College, 300-350 g body weight) were randomly divided into saline group, and rNAPTin-1 low-dose (100 μg·kg^−1), middle-dose (1 mg·kg^−1), high dose group (5 mg·kg^−1), 10 rats each group, respectively. These rats were anaesthetized with 10% chloral hydrate (250 mg/kg) by intraperitoneal injection. […] The abdominal cavity was reopened after 4 hours, and the ligated segment was opened longitudinally to check for whether there is thrombus.

BALb/c mice = assay: Mouse tail bleeding time; assay type: in vivo; settings: tail transected after 10 min
Description: After 10 min, the distal tip 1.5 mm of the mouse tail was transected and the blood oozed was soaked with filter paper very 30 seconds until the bleeding stops. The bleeding time was defined as the time elapsed from the tail transection to the stoppage of bleeding.

B1: NAPTin-1 (protein)
chain: NPSCGENERHDECSRKECDPKCKYDGTEEKDDEKPVVCLTRVCYGDCICRDGFLRNKNGACVKAEDCELD
modifications: Sequence derived from Ancylostoma caninum or Synthetic
SD rats [1]; 100 μg·kg^−1 i.v.
  wet weight of thrombus: 8.5 ± 1.8 mg
SD rats [1]; 100 μg·kg^−1 i.v., vs saline control
  Inhibition rate %: 80.5%
SD rats [1]; 1 mg·kg^−1 i.v.
  wet weight of thrombus: 1.5 ± 0.3 mg
SD rats [1]; 1 mg·kg^−1 i.v., vs saline control
  Inhibition rate %: 97%
SD rats [1]; 5 mg·kg^−1 i.v.
  wet weight of thrombus: 0.3 ± 0.2 mg
SD rats [1]; 5 mg·kg^−1 i.v., vs saline control
  Inhibition rate %: 99%
SD rats [1]; vs saline control, P<0.01
  effect on arterio-venous shunt thrombosis (in words): could inhibit rat arterio-venous shunt thrombosis
Human fXa; 100 nM
  effect on fXa activity (in words): without affecting; also recorded: no significant inhibitory activity
Human fXa; 200 nM
  effect on fXa activity (in words): without affecting
Normal human plasma; 100 nM and 500 nM
  prolongation of aPTT (in words): significantly prolong aPTT
Normal human plasma; 100 nM
  aPTT: 79.2 ± 3.5 s
  multiples of prolonging aPTT: 1.98
Normal human plasma; 500 nM
  aPTT: 228.3 ± 7.4 s
  multiples of prolonging aPTT: 5.69
SD rats [2]; 100 μg·kg^−1 i.v.
  wet weight of thrombus: 1.5 ± 0.2 mg
  Inhibition rate %: 66.7%
SD rats [2]; 1 mg·kg^−1 i.v.
  wet weight of thrombus: 0.5 ± 0.3 mg
  Inhibition rate %: 88.9%
SD rats [2]; 5 mg·kg^−1 i.v.
  wet weight of thrombus (mg): 0* mg
  Inhibition rate %: 100%
SD rats [3]; 0.1 mg/kg i.v.
  Inhibition rate %: 80%
  Thrombosis rate: 2/10*
SD rats [3]; 1.0 mg/kg i.v.
  Inhibition rate %: 100%
  Thrombosis rate: 0/10*
SD rats [3]; 5.0 mg/kg i.v.
  Inhibition rate %: 100%
  Thrombosis rate: 0/10*
SD rats [3]; rat, in vivo
  effect on rat venous thrombosis (in words): significant antithrombotic effect
BALb/c mice; 100 μg·kg^−1 tail vein
  Bleeding time: 8.34 ± 1.7 min
BALb/c mice; 1 mg·kg^−1 tail vein
  Bleeding time: 8.30 ± 2.1 min
BALb/c mice; 5 mg·kg^−1 tail vein
  Bleeding time: 8.28 ± 2.3 min
